According to the supplement of paper PMC9170038:

Tested on: MS2 coat protein
Assay: apparent KD of MS2 coat protein; higher = weaker reporter binding
Conditions: Eterna round: R107
Procedure, shortened: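 For every design, apparent KD is the median of normalised binding-curve fits from its clusters. The RNA switches were transcribed on-chip from Illumina sequencing clusters and titrated with SNAP-549-labelled MS2 coat protein (twofold steps, 0.7 or 1.5 nM to 3 µM; 0.8–1.5 h to 10–20 min per step). Titrations used 100 mM Tris-HCl pH 7.5, 80 mM KCl, 4 mM MgCl2, without or with constant ligand.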

[1] = input ligand: theophylline 20 uM
[2] = input ligand: theophylline 2 mM
[3] = input ligand: tryptophan 2.4 mM

| Sequence | apparent KD of MS2 coat protein (input ligand: arginine 13.2 mM) [µM] | apparent KD of MS2 coat protein [1] [µM] | apparent KD of MS2 coat protein [2] [µM] | apparent KD of MS2 coat protein [3] [µM] | apparent KD of MS2 coat protein (input ligand: none) [µM] |
| --- | --- | --- | --- | --- | --- |
| GAGGCACGGUCGGCCGCCACUACAGCAGUGGUCCGCCAAGCGAGGUACAUGAGGAUCACCCAUGUUAGGACCGGGACCUGUUUUU [theeternabot_exclusion_MS2_Trp_B_27] | 0.0202 | 0.0246 | 0.0255 | – | – |
| GAUGAACUAUUUGAUACCAGACUACAUGAGGAUCACCCAUGUGUGUUAAUUUUUCAGUCAGUCCCUUGGCAGCAAAUAGUUUAUC [XTheo B #2] | 0.0422 | 0.0707 | – | 0.0321 | – |
| GAUGAUAUUGCAGAUACCAGACACAUGAGGAUCACCCAUGUCGCUGAGUUGCUGGAUCGUGUCCCUUGGCAGCUGCGAUAUCAUC [Belgium] | 0.0183 | 0.0385 | – | 0.0197 | – |
| GAUGAUAUUGCAGAUACCAGACACAUGAGGAUCACCCAUGUCUCUGUGAUGUAGGAUUGUGUCCCUUGGCAGCUGCGAUAUCAUC [Chile] | 0.088 | 0.258 | – | 0.175 | – |
| GCACCAGGUACGGAUACCAGCUAUAGGCACAGAGGAGGACAUGAGGAUCACCCAUGUGAUGGCCCUUGGCAGCUGUACCUGGUGC [EThB NP+V+V2 #3] | 0.00889 | 0.0232 | 0.171 | 0.0106 | 0.0129 |
| GCACCAGGUACGGAUACCAGCUAUAGGUACAGCGGAGGACAUGAGGAUCACCCAUGUGGUAGCCCUUGGCAGCUGUACCUGGUGC [EThB NP+V+V2 #1 +-Same Structure] | 0.0177 | 0.0239 | 0.0404 | 0.0155 | 0.0149 |
| GCACCAGGUACGGAUACCAGCUGCCACAGUUACAUGAGGAUCACCCAUGUGAAAACGUGUAGCCCUUGGCAGCUGUACCUGGUGC [SSThB NP+V+V2 #8 Same Structure] | 0.198 | 0.186 | 0.0146 | 0.398 | 0.459 |
| GCAUCCUAGUCGGCCGCCACUGCAACAUGAGGAUCACCCAUGUCUGCAUCUUCAUGAUGCAGUAGCAGGACCGGGACUAGGAUGC [(T1)-(M1)-(M2)-(T)''-(M)'-(T)'-(T2)_Design1_2/18/17] | 0.0694 | 0.153 | 0.242 | – | – |
| GCAUCCUAGUCGGCCGCCACUGGUACGAACACCUUCACCCGUGUGCACAUGAGGAUCACCCAUGUCAGGACCGGGACUAGGAUGC [SSTryp B #22] | 0.00948 | 0.0109 | 0.00854 | – | – |
| GCAUGUGGAGUCUUACUAGAGAGGACAGAUACCAGUAAGAUGUGAUACCCUUGGCAGCUGCGAUUUACAUGAGGAUCACCCAUGU [X-TheoA-ms2@67] | 0.0192 | 0.0214 | – | 0.0247 | – |
| GCCAGUCAUAGCAGGGCAAAUAUACUCGAAGGAGCGUCAUAGUAGGCAGGUAGGUCGCGAGACAUGAGGAUCACCCAUGUAGAGA [fffmullin] | 0.0302 | 0.0598 | 0.0483 | 0.0328 | 0.0474 |
| GCCGGACUUUCGGCCGCCACUGAGAGAGUCGUGUGAACAUGAGGAUCACCCAUGUAAUAUAUAUACAGGACCGGGAGGGUUCGGC [4.S] | 0.0105 | 0.0187 | 0.0119 | 0.012 | 0.0122 |
| GCCUAGCAUCGAAGGAGCGCUGGUGAAACUGACUAAUAUACAUGAGGAUCACCCAUGUGCUAGCAGGUAGGUCGCGAUGCUAGGC [SSAB NP+V+V2 #11] | 0.0204 | 0.0272 | 0.0255 | 0.0211 | 0.0217 |
| GCCUCCAGCCGAAGGAGCGCUAGAAGGUGACAUGAGGAUCACCCAUGUGUGUGAUGUGGCUAGCAGGUAGGUCGCGGAGGAGGUA [Exclusion - Arginine B (Freestyle 21)] | 0.118 | 0.134 | 0.111 | 0.092 | 0.0997 |
| GCGACCCUGAGAUCCUACGUAACGUGAACACGAGGACCGGUACGGCCGCCACUCGAGAGAACAUGAGGAUCACCCAUGUCUGAGC [e-trypA-0] | 0.0173 | 0.0372 | 0.0308 | – | – |
| GCGCGGCGAGUGCGGCGUGUUCCGCUCCGUCGAGGACCGGUACGGCCGCCACUCGACAUGAGGAUCACCCAUGUCGCCGCGCGUC [Exclusion - Tryptophan A Attempt #1] | 0.0126 | 0.0486 | 0.0192 | – | – |
| GCGUACGAUCGGGAUACCAGACAUUGCCGUUAGGGUGAACCUGAGGAACACCCAGGUUUUGUCCCUUGGCAGCCCGAUCGUACGC [ETB NP+V+V2 #8 Diff Apt, Same Structure] | 0.0206 | 0.0658 | 0.136 | 0.0275 | 0.0196 |
| GCUAGGUCUACGGCCGCCACUAGACGUGGGUAAGACAUGAGGAUCACCCAUGUACUACGGGCGAAUAGGACCGGGUAGACCUAGC [SSTB NP+V+V2 #14 Same Structure] | 0.173 | 0.499 | 0.668 | 0.0391 | 0.321 |
| GCUAGGUCUACGGCCGCCACUAGACGUGGGUAAGACAUGAGGAUCACCCAUGUACUACGGGCGAUUAGGACCGGGUAGACCUAGC [SSTB NP+V+V2 #16 Same Structure] | 0.0505 | 0.527 | 0.646 | 0.0669 | 0.309 |
| GCUGCAGCUACGGCCGCCACUGUUACGUGAGACAUGAGGAUCACCCAUGUUGAUGUUUUACGGUAUAGGACCGGGUAGUUGUAGU [E 1.0] | 0.00908 | 0.0118 | 0.0103 | – | – |
| GCUGCUUUGGGAAGGAGCGCUGUGGUAGUGUGGCGGACAUGAGGAUCACCCAUGUGCCUGCAGCAGGUAGGUCGCUUAGGGCAGC [EAP NP+V+V2 #16] | 0.0376 | 0.0379 | 0.0401 | 0.0365 | 0.0245 |
